Assay results from PMC12126490, “The HP1 box of KAP1 organizes HP1α for silencing of endogenous retroviral elements in embryonic stem cells” (Nature Communications, 2025).

Columns and labels:
[1] = system: FLAG-tagged HP1α; experiment: pull-down with Strep-tagged KAP1, Western blot; type: binding; settings: Strep-tagged full-length KAP1 mutant, HCT116 cells; 3 biological replicates
Protocol: For all AP experiments, HCT116 cells were seeded in 10 cm plates (~4 million cells per dish) and transfected with Strep- and Flag-tagged plasmids one-day after seeding cells. Two days post-transfection, cells were collected in PBS and lysed with passive lysis buffer (PLB: 50 mM Tris-HCl pH 7.5, 150 mM NaCl, 1 mM DTT, 1.0% NP-40, 1.5 mM MgCl2, 5% v/v glycerol, and 1X complete, Mini EDTA-free, EASYpack Protease Inhibitor [Roche, Cat# 4693159001]) by resuspending cells in PLB, vortexing briefly, nutating for 15 min at 4 °C, and centrifuging the lysate (10,000 × g, 10 min, 4 °C). Strep-Tactin superflow resin (IBA Life Sciences, Cat# 2-1208-010), was equilibrated by centrifuging beads (2000 RPM, 2 min, 4 °C), removing storage buffer, and washing three times with PLB with nutation for 5 min at 4 °C. Beads were volumed back to their original volume, and 40 µL beads were used per AP and bound for 2 h. Beads were then washed with AP Wash Buffer (50 mM Tris-HCl pH 7.5, 250 mM NaCl, 1 mM DTT, 0.2% NP-40, 1.5 mM MgCl2, and 5% v/v glycerol), and eluted with Strep-tag Elution Buffer containing D-Desthiobiotin (IBA Life Sciences, Cat# 2-1000-025). […]
Tryptophan fluorescence data are presented as average of three independent measurements ±SD. […]

[2] = system: endogenous retroelements in KAP1 cKO ESCs; experiment: ATAC-seq chromatin accessibility; type: cell-based, mouse; settings: exogenous expression in KAP1 cKO ESCs, 2 μg/mL doxycycline, 2 μM 4-OHT 48 h
Protocol: ESCs were maintained under standard conditions on gelatin-coated plates at 37 °C at 5% CO2 in Knockout DMEM (Thermo Fisher) supplemented with NEAA, GlutaMAX, penicillin/streptomycin (Thermo Fisher), 15% ESC-screened fetal bovine serum (Hyclone), 0.1 mM 2-mercaptoethanol (Fisher), and leukemia-inhibitory factor (LIF). Generation of KAP1 cKO ESCs has been described previously. The piggybac transposon system was used to stably integrate transgenic Flag-tagged WT or V488E mutant KAP1 under control of an rtTA promoter (Systems Biosciences, PB-TRE-EGFP-EF1a-rtTA) into the inducible KAP1 cKO ESCs. Exogenous expression of WT or V488E mutant KAP1 was induced with 2 μg/mL doxycycline for 48 h and maintained in doxycycline prior to endogenous KAP1 deletion. KAP1 deletion was induced with 2 μM 4-OHT (Sigma) treatment for 48 h. […]
The modified ATAC-sequencing protocol Omni-ATAC was performed. […] Number of further PCR cycles required was determined using KAPA Library Quantification Kit (KK4854). […]
Quality of datasets was assessed using the FastQC tool. Raw reads were adapter and quality trimmed using Trimgalore. Trimmed reads were aligned to the mouse reference genome (mm10) with Bowtie2. Multimapping reads were randomly assigned. Optical duplicate reads were filtered using Picard (https://broadinstitute.github.io/picard/). Reads which mapped to the mitochondrial genome were removed with Samtools. […]

B1: V488E KAP1: V488E mutant of KAP1, impaired in binding to HP1 (protein)
chain: MAASAAAASAAAASAASGSPGPGEGSAGGEKRSTAPSAAASASASAAASSPAGGGAEALELLEHCGVCRERLRPEREPRLLPCLHSACSACLGPAAPAAANSSGDGGAAGDGTVVDCPVCKQQCFSKDIVENYFMRDSGSKAATDAQDANQCCTSCEDNAPATSYCVECSEPLCETCVEAHQRVKYTKDHTVRSTGPAKSRDGERTVYCNVHKHEPLVLFCESCDTLTCRDCQLNAHKDHQYQFLEDAVRNQRKLLASLVKRLGDKHATLQKSTKEVRSSIRQVSDVQKRVQVDVKMAILQIMKELNKRGRVLVNDAQKVTEGQQERLERQHWTMTKIQKHQEHILRFASWALESDNNTALLLSKKLIYFQLHRALKMIVDPVEPHGEMKFQWDLNAWTKSAEAFGKIVAERPGTNSTGPAPMAPPRAPGPLSKQGSGSSQPMEVQEGYGFGSGDDPYSSAEPHVSGVKRSRSGEGEVSGLMRKVPRESLERLDLDLTADSQPPVFKVFPGSTTEDYNLIVIERGAAAAATGQPGTAPAGTPGAPPLAGMAIVKEEETEAAIGAPPTATEGPETKPVLMALAEGPGAEGPRLASPSGSTSSGLEVVAPEGTSAPGGGPGTLDDSATICRVCQKPGDLVMCNQCEFCFHLDCHLPALQDVPGEEWSCSLCHVLPDLKEEDGSLSLDGADSTGVVAKLSPANQRKCERVLLALFCHEPCRPLHQLATDSTFSLDQPGGTLDLTLIRARLQEKLSPPYSSPQEFAQDVGRMFKQFNKLTEDKADVQSIIGLQRFFETRMNEAFGDTKFSAVLVEPPPMSLPGAGLSSQELSGGPGDGP
modifications: left off: Strep, end not stated, kept
With B1 the “pull-down of FLAG-tagged HP1α” value [1] was “eliminated binding of exogenously expressed FLAG-tagged HP1α” and the “restoration of closed chromatin at IAPEz, MERVK10C and ETn” value [2] was “could not restore a closed chromatin state to the same extent observed with expression of WT KAP1”.
